Experimental data reported in FireProtDB (doi:10.1093/protein/12.8.663).
Values joined by “and” are separate entries in the source; they are usually repeats but may differ in a detail not shown here. Identical values can stand only once.

B1: Lysozyme C, P61626 (parent)
chain: MKALIVLGLVLLSVTVQGKVFERCELARTLKRLGMDGYRGISLANWMCLAKWESGYNTRATNYNAGDRSTDYGIFQINSRYWCNDGKTPGAVNACHLSCSALLQDNIADAVACAKRVVRDPQGIRAWVAWRNRCQNRDVRQYVQGCGV

Variants of: B1
Conditions: Homo sapiens; pH 2.61; Thermal; DSC; glycine 0.05 M; reversible: yes; structure 1LZ1; whole UniProt chain shown

| Variant | Tm | unfolding enthalpy (calorimetric) | unfolding enthalpy (van 't Hoff) |
| --- | --- | --- | --- |
| MKALIVLGLVLLSVTVQGKVFERCELARTLKRLGMDGYRGISLANWMCLLKWESGYNTRATNYNAGDRSTDYGIFQINSRYWCNDGKTPGAVNACHLSCSALLQDNIADAVACAKRVVRDPQGIRAWVAWRNRCQNRDVRQYVQGCGV [A50L] | 63.1 °C | 94.9 kcal/mol | 97.8 kcal/mol |

Same assay, conditions: Homo sapiens; pH 2.7; 64.9 °C; Thermal; DSC; glycine 0.05 M; reversible: yes; structure 1LZ1; whole UniProt chain shown

| Variant | ddG of mutation (higher = less stable) |
| --- | --- |
| MKALIVLGLVLLSVTVQGKVFERCELARTLKRLGMDGYRGISLANWMCLLKWESGYNTRATNYNAGDRSTDYGIFQINSRYWCNDGKTPGAVNACHLSCSALLQDNIADAVACAKRVVRDPQGIRAWVAWRNRCQNRDVRQYVQGCGV [A50L] | 0.1 kcal/mol |
| MKALIVLGLVLLSVTVQGKVFERCELARTLKRLGMDGYRGISLANWMCLAKWESGYNTRATNYNAGDRSTDYGIFGINSRYWCNDGKTPGAVNACHLSCSALLQDNIADAVACAKRVVRDPQGIRAWVAWRNRCQNRDVRQYVQGCGV [Q76G] | -1.86 kcal/mol |
| MKALIVLGLVLLSVTVQGKVFERCELARTLKRLGMDGYRGISLANWMCLAKWLSGYNTRATNYNAGDRSTDYGIFQINSRYWCNDGKTPGAVNACHLSCSALLQDNIADAVACAKRVVRDPQGIRAWVAWRNRCQNRDVRQYVQGCGV [E53L] | 0.53 kcal/mol |
| MKALIVLGLVLLSVTVQGKVFERCELARTLKRLGMDGYRGISLANWMCLAKWESGYNTRATNYNAGDRSTDYGIFQINSRYWCNDGKTPGAVNACHLSCSALLQDNIADAVACMKRVVRDPQGIRAWVAWRNRCQNRDVRQYVQGCGV [A114M] | -0.02 kcal/mol |
| MKALIVLGLVLLSVTVQGKVFERCELARTLKRLGMDGYRGISLANWMCLAKWESQYNTRATNYNAGDRSTDYGIFQINSRYWCNDGKTPGAVNACHLSCSALLQDNIADAVACAKRVVRDPQGIRAWVAWRNRCQNRDVRQYVQGCGV [G55Q] | 0.26 kcal/mol |

Same assay, conditions: Homo sapiens; pH 2.7; Thermal; DSC; glycine 0.05 M; reversible: yes; structure 1LZ1; whole UniProt chain shown

| Variant | Tm | change of melting temperature, mutant - wild type (higher = more stable) | heat capacity change of unfolding | unfolding enthalpy (calorimetric) |
| --- | --- | --- | --- | --- |
| MKALIVLGLVLLSVTVQGKVFERCELARTLKRLGMDGYRGISLANWMCLLKWESGYNTRATNYNAGDRSTDYGIFQINSRYWCNDGKTPGAVNACHLSCSALLQDNIADAVACAKRVVRDPQGIRAWVAWRNRCQNRDVRQYVQGCGV [A50L] | 64.6 °C and 64.9 °C | -0.3 °C | 1.27 kcal/mol/K | 98.2 kcal/mol |
| MKALIVLGLVLLSVTVQGKVFERCELARTLKRLGMDGYRGISLANWMCLAKWESGYNTRATNYNAGDRSTDYGIFGINSRYWCNDGKTPGAVNACHLSCSALLQDNIADAVACAKRVVRDPQGIRAWVAWRNRCQNRDVRQYVQGCGV [Q76G] | – | 5.7 °C | 1.34 kcal/mol/K | 109 kcal/mol |
| MKALIVLGLVLLSVTVQGKVFERCELARTLKRLGMDGYRGISLANWMCLAKWLSGYNTRATNYNAGDRSTDYGIFQINSRYWCNDGKTPGAVNACHLSCSALLQDNIADAVACAKRVVRDPQGIRAWVAWRNRCQNRDVRQYVQGCGV [E53L] | 63.1 °C and 64.9 °C | -1.8 °C | 1.05 kcal/mol/K | 99 kcal/mol |
| MKALIVLGLVLLSVTVQGKVFERCELARTLKRLGMDGYRGISLALWMCLAKWESGYNTRATNYNAGDRSTDYGIFQINSRYWCNDGKTPGAVNACHLSCSALLQDNIADAVACAKRVVRDPQGIRAWVAWRNRCQNRDVRQYVQGCGV [N45L] | 65.3 °C | 0.4 °C | – | – |
| MKALIVLGLVLLSVTVQGKVFERCELARTLKRLGMDGYRGISLANWMCLAKWESGYNTRATNYNAGDRSTDYGIFQINSRYWCNDGKTPGAVNACHLSCSALLQDNIADAVACMKRVVRDPQGIRAWVAWRNRCQNRDVRQYVQGCGV [A114M] | 65 °C and 64.9 °C | 0.1 °C | 1.31 kcal/mol/K | 98.7 kcal/mol |
| MKALIVLGLVLLSVTVQGKVFERCELARTLKRLGMDGYRGISLANWMCLAKWESQYNTRATNYNAGDRSTDYGIFQINSRYWCNDGKTPGAVNACHLSCSALLQDNIADAVACAKRVVRDPQGIRAWVAWRNRCQNRDVRQYVQGCGV [G55Q] | 64.1 °C and 64.9 °C | -0.8 °C | 1.15 kcal/mol/K | 108 kcal/mol |

Same assay, conditions: Homo sapiens; pH 2.83; Thermal; DSC; glycine 0.05 M; reversible: yes; structure 1LZ1; whole UniProt chain shown

| Variant | Tm | unfolding enthalpy (calorimetric) | unfolding enthalpy (van 't Hoff) |
| --- | --- | --- | --- |
| MKALIVLGLVLLSVTVQGKVFERCELARTLKRLGMDGYRGISLANWMCLLKWESGYNTRATNYNAGDRSTDYGIFQINSRYWCNDGKTPGAVNACHLSCSALLQDNIADAVACAKRVVRDPQGIRAWVAWRNRCQNRDVRQYVQGCGV [A50L] | 66.9 °C | 102 kcal/mol | 104 kcal/mol |

Same assay, conditions: Homo sapiens; pH 3.23; Thermal; DSC; glycine 0.05 M; reversible: yes; structure 1LZ1; whole UniProt chain shown

| Variant | Tm | unfolding enthalpy (calorimetric) | unfolding enthalpy (van 't Hoff) |
| --- | --- | --- | --- |
| MKALIVLGLVLLSVTVQGKVFERCELARTLKRLGMDGYRGISLANWMCLLKWESGYNTRATNYNAGDRSTDYGIFQINSRYWCNDGKTPGAVNACHLSCSALLQDNIADAVACAKRVVRDPQGIRAWVAWRNRCQNRDVRQYVQGCGV [A50L] | 73.2 °C | 108 kcal/mol | 111 kcal/mol |

Same assay, conditions: Homo sapiens; pH 2.59; Thermal; DSC; glycine 0.05 M; reversible: yes; structure 1LZ1; whole UniProt chain shown

| Variant | Tm | unfolding enthalpy (calorimetric) | unfolding enthalpy (van 't Hoff) |
| --- | --- | --- | --- |
| MKALIVLGLVLLSVTVQGKVFERCELARTLKRLGMDGYRGISLANWMCLAKWESGYNTRATNYNAGDRSTDYGIFGINSRYWCNDGKTPGAVNACHLSCSALLQDNIADAVACAKRVVRDPQGIRAWVAWRNRCQNRDVRQYVQGCGV [Q76G] | 68.3 °C | 113 kcal/mol | 121 kcal/mol |

Same assay, conditions: Homo sapiens; pH 2.78; Thermal; DSC; glycine 0.05 M; reversible: yes; structure 1LZ1; whole UniProt chain shown

| Variant | Tm | unfolding enthalpy (calorimetric) | unfolding enthalpy (van 't Hoff) |
| --- | --- | --- | --- |
| MKALIVLGLVLLSVTVQGKVFERCELARTLKRLGMDGYRGISLANWMCLAKWESGYNTRATNYNAGDRSTDYGIFGINSRYWCNDGKTPGAVNACHLSCSALLQDNIADAVACAKRVVRDPQGIRAWVAWRNRCQNRDVRQYVQGCGV [Q76G] | 72.5 °C | 119 kcal/mol | 127 kcal/mol |

Same assay, conditions: Homo sapiens; pH 3.15; Thermal; DSC; glycine 0.05 M; reversible: yes; structure 1LZ1; whole UniProt chain shown

| Variant | Tm | unfolding enthalpy (calorimetric) | unfolding enthalpy (van 't Hoff) |
| --- | --- | --- | --- |
| MKALIVLGLVLLSVTVQGKVFERCELARTLKRLGMDGYRGISLANWMCLAKWESGYNTRATNYNAGDRSTDYGIFGINSRYWCNDGKTPGAVNACHLSCSALLQDNIADAVACAKRVVRDPQGIRAWVAWRNRCQNRDVRQYVQGCGV [Q76G] | 78.7 °C | 127 kcal/mol | 135 kcal/mol |

Same assay, conditions: Homo sapiens; pH 2.56; Thermal; DSC; glycine 0.05 M; reversible: yes; structure 1LZ1; whole UniProt chain shown

| Variant | Tm | unfolding enthalpy (calorimetric) | unfolding enthalpy (van 't Hoff) |
| --- | --- | --- | --- |
| MKALIVLGLVLLSVTVQGKVFERCELARTLKRLGMDGYRGISLANWMCLAKWLSGYNTRATNYNAGDRSTDYGIFQINSRYWCNDGKTPGAVNACHLSCSALLQDNIADAVACAKRVVRDPQGIRAWVAWRNRCQNRDVRQYVQGCGV [E53L] | 61.2 °C | 94.9 kcal/mol | 105 kcal/mol |
| MKALIVLGLVLLSVTVQGKVFERCELARTLKRLGMDGYRGISLANWMCLAKWESGYNTRATNYNAGDRSTDYGIFQINSRYWCNDGKTPGAVNACHLSCSALLQDNIADAVACMKRVVRDPQGIRAWVAWRNRCQNRDVRQYVQGCGV [A114M] | 62.5 °C | 95.1 kcal/mol | 98 kcal/mol |

Same assay, conditions: Homo sapiens; pH 3.25; Thermal; DSC; glycine 0.05 M; reversible: yes; structure 1LZ1; whole UniProt chain shown

| Variant | Tm | unfolding enthalpy (calorimetric) | unfolding enthalpy (van 't Hoff) |
| --- | --- | --- | --- |
| MKALIVLGLVLLSVTVQGKVFERCELARTLKRLGMDGYRGISLANWMCLAKWLSGYNTRATNYNAGDRSTDYGIFQINSRYWCNDGKTPGAVNACHLSCSALLQDNIADAVACAKRVVRDPQGIRAWVAWRNRCQNRDVRQYVQGCGV [E53L] | 70.8 °C | 105 kcal/mol | 110 kcal/mol |

Same assay, conditions: Homo sapiens; pH 3.19; Thermal; DSC; glycine 0.05 M; reversible: yes; structure 1LZ1; whole UniProt chain shown

| Variant | Tm | unfolding enthalpy (calorimetric) | unfolding enthalpy (van 't Hoff) |
| --- | --- | --- | --- |
| MKALIVLGLVLLSVTVQGKVFERCELARTLKRLGMDGYRGISLANWMCLAKWESGYNTRATNYNAGDRSTDYGIFQINSRYWCNDGKTPGAVNACHLSCSALLQDNIADAVACMKRVVRDPQGIRAWVAWRNRCQNRDVRQYVQGCGV [A114M] | 72.9 °C | 109 kcal/mol | 112 kcal/mol |

Same assay, conditions: Homo sapiens; pH 2.48; Thermal; DSC; glycine 0.05 M; reversible: yes; structure 1LZ1; whole UniProt chain shown

| Variant | Tm | unfolding enthalpy (calorimetric) | unfolding enthalpy (van 't Hoff) |
| --- | --- | --- | --- |
| MKALIVLGLVLLSVTVQGKVFERCELARTLKRLGMDGYRGISLANWMCLAKWESQYNTRATNYNAGDRSTDYGIFQINSRYWCNDGKTPGAVNACHLSCSALLQDNIADAVACAKRVVRDPQGIRAWVAWRNRCQNRDVRQYVQGCGV [G55Q] | 60.7 °C | 102 kcal/mol | 108 kcal/mol |

Same assay, conditions: Homo sapiens; pH 2.73; Thermal; DSC; glycine 0.05 M; reversible: yes; structure 1LZ1; whole UniProt chain shown

| Variant | Tm | unfolding enthalpy (calorimetric) | unfolding enthalpy (van 't Hoff) |
| --- | --- | --- | --- |
| MKALIVLGLVLLSVTVQGKVFERCELARTLKRLGMDGYRGISLANWMCLAKWESQYNTRATNYNAGDRSTDYGIFQINSRYWCNDGKTPGAVNACHLSCSALLQDNIADAVACAKRVVRDPQGIRAWVAWRNRCQNRDVRQYVQGCGV [G55Q] | 64.5 °C | 108 kcal/mol | 111 kcal/mol |

Same assay, conditions: Homo sapiens; pH 3.09; Thermal; DSC; glycine 0.05 M; reversible: yes; structure 1LZ1; whole UniProt chain shown

| Variant | Tm | unfolding enthalpy (calorimetric) | unfolding enthalpy (van 't Hoff) |
| --- | --- | --- | --- |
| MKALIVLGLVLLSVTVQGKVFERCELARTLKRLGMDGYRGISLANWMCLAKWESQYNTRATNYNAGDRSTDYGIFQINSRYWCNDGKTPGAVNACHLSCSALLQDNIADAVACAKRVVRDPQGIRAWVAWRNRCQNRDVRQYVQGCGV [G55Q] | 70.1 °C | 113 kcal/mol | 118 kcal/mol |
